Measurements as given in the Human Domainome abundance scans (Beltran et al. 2025).
± gives the uncertainty stated by the source.

B1: Probable E3 ubiquitin-protein ligase MID2, residues 191 to 235; numbered along this chain, Q9UJV3 (parent)
chain: RGITCLDHENEKVNMYCVSDDQLICALCKLVGRHRDHQVASLNDR

Variants of: B1
Test: abundance fitness (aPCA) (normalised: wild type 0, dead -1); higher = more abundant; growth selection in yeast, the domain comes from the species named
Conditions: Homo sapiens

Question: Which abundance fitness does the source give for RGITCLDHENEKVNMYCVSDDQLICALCWLVGRHRDHQVASLNDR [K29W] here?
Answer: Its abundance fitness is 0.018 ± 0.061.

Question: With RGITCLDHENEKVNMYCVSDDQLICALCRLVGRHRDHQVASLNDR [K29R] as the variant, how does the abundance fitness read?
Answer: The abundance fitness was 0.07 ± 0.06.

Question: For RGITCLDHENEKVNMYCVSDDQLICALCLLVGRHRDHQVASLNDR [K29L], which abundance fitness is on record?
Answer: The abundance fitness was -0.286 ± 0.092.

Question: Which abundance fitness does the source give for RGITCLDHENEKVNMYCVSDDQLICALCPLVGRHRDHQVASLNDR [K29P] here?
Answer: The abundance fitness was -0.054 ± 0.082.

Question: For RGITCLDHENEKVNMYCVSDDQLICALCKLVGRHRIHQVASLNDR [D36I], which abundance fitness is on record?
Answer: The abundance fitness was -0.34 ± 0.4.

Question: With RGITCLDHENEKVNMYCVSDDQLICALCKLVGRHRGHQVASLNDR [D36G] as the variant, how does the abundance fitness read?
Answer: The abundance fitness was -0.098 ± 0.054.

Question: Which abundance fitness does the source give for RGITCLDHENEKVNMYCVSDDQLICALCKLVGRHRHHQVASLNDR [D36H] here?
Answer: Its abundance fitness is -0.146 ± 0.28.

Question: Which abundance fitness does the source give for RGITCLDHENEKVNMYCVSEDQLICALCKLVGRHRDHQVASLNDR [D20E] here?
Answer: Its abundance fitness is -0.096 ± 0.063.

Question: Which abundance fitness does the source give for RGITCLDHENEKVNMYCASDDQLICALCKLVGRHRDHQVASLNDR [V18A] here?
Answer: Its abundance fitness is 0.054 ± 0.044.

Question: For RGITCLDHENEKVNMYCTSDDQLICALCKLVGRHRDHQVASLNDR [V18T], which abundance fitness is on record?
Answer: Its abundance fitness is 0.2 ± 0.061.

Question: For RGITCLDHENEKVNMYCISDDQLICALCKLVGRHRDHQVASLNDR [V18I], which abundance fitness is on record?
Answer: The abundance fitness was -0.165 ± 0.089.

Question: Which abundance fitness does the source give for RGIWCLDHENEKVNMYCVSDDQLICALCKLVGRHRDHQVASLNDR [T4W] here?
Answer: The abundance fitness was -0.219 ± 0.061.

Question: Which abundance fitness does the source give for RGIICLDHENEKVNMYCVSDDQLICALCKLVGRHRDHQVASLNDR [T4I] here?
Answer: Its abundance fitness is 0.032 ± 0.37.

Question: With RGITCLDHENEKVNMYCVSDDQLICALCKLHGRHRDHQVASLNDR [V31H] as the variant, how does the abundance fitness read?
Answer: The abundance fitness was 0.108 ± 0.1.

Question: With RGITCLDHENEKVNMYCVSDDQLICALCKLVGRHRDHQVADLNDR [S41D] as the variant, how does the abundance fitness read?
Answer: The abundance fitness was 0.087 ± 0.074.

Question: For RGITCLDHENEKVNMYCVSDYQLICALCKLVGRHRDHQVASLNDR [D21Y], which abundance fitness is on record?
Answer: The abundance fitness was -0.527 ± 0.15.

Question: For RGITCLDHENEKVNMYCVSDPQLICALCKLVGRHRDHQVASLNDR [D21P], which abundance fitness is on record?
Answer: Its abundance fitness is -0.819 ± 0.11.

Question: For RGITCLDHENEKVNMYCVSDSQLICALCKLVGRHRDHQVASLNDR [D21S], which abundance fitness is on record?
Answer: Its abundance fitness is -0.088 ± 0.059.

Question: For RGITCLDGENEKVNMYCVSDDQLICALCKLVGRHRDHQVASLNDR [H8G], which abundance fitness is on record?
Answer: Its abundance fitness is -0.582 ± 0.048.

Question: For RGITCLDHENIKVNMYCVSDDQLICALCKLVGRHRDHQVASLNDR [E11I], which abundance fitness is on record?
Answer: Its abundance fitness is -0.334 ± 0.081.

Question: Which abundance fitness does the source give for RGITCLDHENEKVNMYCVSDDQLICALCKLVGRHRDHQVTSLNDR [A40T] here?
Answer: Its abundance fitness is -0.068 ± 0.12.

Question: Which abundance fitness does the source give for RGITCLDHENEKVNMYCVSDDQLICALCKLVGRHRDHQQASLNDR [V39Q] here?
Answer: Its abundance fitness is -0.081 ± 0.086.

Question: With RGITCLDHENEKVNMYCVSDDQLICALCKLVGRHRDHQIASLNDR [V39I] as the variant, how does the abundance fitness read?
Answer: The abundance fitness was -0.153 ± 0.095.

Question: With RGITCLDHENEKVNMYCVSDDQLICALCKLVGRHRDHQTASLNDR [V39T] as the variant, how does the abundance fitness read?
Answer: Its abundance fitness is 0.06 ± 0.063.

Question: With RGITCLDHENEKWNMYCVSDDQLICALCKLVGRHRDHQVASLNDR [V13W] as the variant, how does the abundance fitness read?
Answer: Its abundance fitness is -0.619 ± 0.18.

Question: Which abundance fitness does the source give for RGITCLDHENEKTNMYCVSDDQLICALCKLVGRHRDHQVASLNDR [V13T] here?
Answer: Its abundance fitness is -0.179 ± 0.075.

Question: Which abundance fitness does the source give for RGITCLDHENEKVNMYCVSDDQLICALCKLVGRHRDGQVASLNDR [H37G] here?
Answer: The abundance fitness was -0.283 ± 0.056.

Question: For RGITCLDHENEKVNMYCVSDDQLICALCKLVGRHRDKQVASLNDR [H37K], which abundance fitness is on record?
Answer: The abundance fitness was 0.271 ± 0.068.

Question: Which abundance fitness does the source give for RGITCLDHENEKVNMYCVSDDQLICALCKLVGRHRDSQVASLNDR [H37S] here?
Answer: Its abundance fitness is -0.482 ± 0.091.

Question: For RGITCLPHENEKVNMYCVSDDQLICALCKLVGRHRDHQVASLNDR [D7P], which abundance fitness is on record?
Answer: The abundance fitness was -0.55 ± 0.07.

Question: Which abundance fitness does the source give for RGITCLVHENEKVNMYCVSDDQLICALCKLVGRHRDHQVASLNDR [D7V] here?
Answer: The abundance fitness was -0.17 ± 0.048.

Question: Which abundance fitness does the source give for RGITCLDHENEKVNMYCVSDDQLICALCKGVGRHRDHQVASLNDR [L30G] here?
Answer: Its abundance fitness is 0.13 ± 0.06.

Question: For RGITCLDHEHEKVNMYCVSDDQLICALCKLVGRHRDHQVASLNDR [N10H], which abundance fitness is on record?
Answer: Its abundance fitness is -0.036 ± 0.12.

Question: With RGITCLDHETEKVNMYCVSDDQLICALCKLVGRHRDHQVASLNDR [N10T] as the variant, how does the abundance fitness read?
Answer: The abundance fitness was -0.26 ± 0.066.

Question: Which abundance fitness does the source give for RGITCLDHEREKVNMYCVSDDQLICALCKLVGRHRDHQVASLNDR [N10R] here?
Answer: The abundance fitness was -0.138 ± 0.048.

Question: Which abundance fitness does the source give for RGITCLDHECEKVNMYCVSDDQLICALCKLVGRHRDHQVASLNDR [N10C] here?
Answer: Its abundance fitness is -0.175 ± 0.068.

Question: Which abundance fitness does the source give for RGITCLDHELEKVNMYCVSDDQLICALCKLVGRHRDHQVASLNDR [N10L] here?
Answer: Its abundance fitness is -0.102 ± 0.06.

Question: For RGITCLDHTNEKVNMYCVSDDQLICALCKLVGRHRDHQVASLNDR [E9T], which abundance fitness is on record?
Answer: The abundance fitness was 0.151 ± 0.065.

Question: With RGITCLDHRNEKVNMYCVSDDQLICALCKLVGRHRDHQVASLNDR [E9R] as the variant, how does the abundance fitness read?
Answer: Its abundance fitness is -0.024 ± 0.049.

Question: For RGITCLDHSNEKVNMYCVSDDQLICALCKLVGRHRDHQVASLNDR [E9S], which abundance fitness is on record?
Answer: Its abundance fitness is -0.033 ± 0.065.

Question: Which abundance fitness does the source give for RGITCYDHENEKVNMYCVSDDQLICALCKLVGRHRDHQVASLNDR [L6Y] here?
Answer: Its abundance fitness is 0.064 ± 0.13.

Question: Which abundance fitness does the source give for RGITCIDHENEKVNMYCVSDDQLICALCKLVGRHRDHQVASLNDR [L6I] here?
Answer: Its abundance fitness is 0.16 ± 0.13.

Question: With RGITCLDHENEKVNMYCVSDDQKICALCKLVGRHRDHQVASLNDR [L23K] as the variant, how does the abundance fitness read?
Answer: The abundance fitness was 0.213 ± 0.081.

Question: Which abundance fitness does the source give for RGITCLDHENEKVNMYCVSDDQWICALCKLVGRHRDHQVASLNDR [L23W] here?
Answer: The abundance fitness was -0.038 ± 0.072.

Question: For RGITCLDHENEKVNMYCVSDDQDICALCKLVGRHRDHQVASLNDR [L23D], which abundance fitness is on record?
Answer: Its abundance fitness is 0.064 ± 0.2.

Question: For RGITCLDHENEKVNMYCVSDDLLICALCKLVGRHRDHQVASLNDR [Q22L], which abundance fitness is on record?
Answer: The abundance fitness was -0.177 ± 0.063.

Question: For RGITCLDHENELVNMYCVSDDQLICALCKLVGRHRDHQVASLNDR [K12L], which abundance fitness is on record?
Answer: The abundance fitness was -0.049 ± 0.069.

Question: Which abundance fitness does the source give for RGITCLDHENEKVNWYCVSDDQLICALCKLVGRHRDHQVASLNDR [M15W] here?
Answer: The abundance fitness was 0.11 ± 0.058.

Question: With RGITCLDHENEKVNRYCVSDDQLICALCKLVGRHRDHQVASLNDR [M15R] as the variant, how does the abundance fitness read?
Answer: Its abundance fitness is -0.118 ± 0.06.

Question: With RGITCLDHENEKVNVYCVSDDQLICALCKLVGRHRDHQVASLNDR [M15V] as the variant, how does the abundance fitness read?
Answer: The abundance fitness was -0.277 ± 0.069.

Question: Which abundance fitness does the source give for RGITCLDHENEKVAMYCVSDDQLICALCKLVGRHRDHQVASLNDR [N14A] here?
Answer: The abundance fitness was 0 ± 0.062.

Question: With RGTTCLDHENEKVNMYCVSDDQLICALCKLVGRHRDHQVASLNDR [I3T] as the variant, how does the abundance fitness read?
Answer: The abundance fitness was 0.08 ± 0.06.

Question: For RGMTCLDHENEKVNMYCVSDDQLICALCKLVGRHRDHQVASLNDR [I3M], which abundance fitness is on record?
Answer: The abundance fitness was 0.111 ± 0.066.
